# Data reported in patent publication US10941182 (Amgen, dated 2021).
# Non-standard residues stand in square brackets, D forms with d. dBip = N[C@H](Cc1ccc(-c2ccccc2)cc1)C(=O)O; Oic = O=C(O)[C@@H]1C[C@@H]2CCCC[C@@H]2N1; Phe(4-Cl) = N[C@@H](Cc1ccc(Cl)cc1)C(=O)O; Phe(4-I) = N[C@@H](Cc1ccc(I)cc1)C(=O)O; NMehArg = CN[C@@H](CCCCNC(=N)N)C(=O)O; NMeR = CN[C@@H](CCCNC(=N)N)C(=O)O; hArg = N=C(N)NCCCC[C@H](N)C(=O)O; Cha = N[C@@H](CC1CCCCC1)C(=O)O; NMeL = CN[C@@H](CC(C)C)C(=O)O; Nle = CCCC[C@H](N)C(=O)O; Aib = CC(C)(N)C(=O)O
# B1: SEQ ID NO: 80 (peptide)
# peptide: Ac-[hArg][dR]Q[hArg]P[dR]ESHKG[Oic][Phe(4-I)]P[dBip]-OH
# SMILES: CC(=O)N[C@@H](CCCCNC(=N)N)C(=O)N[C@H](CCCNC(=N)N)C(=O)N[C@@H](CCC(N)=O)C(=O)N[C@@H](CCCCNC(=N)N)C(=O)N1CCC[C@H]1C(=O)N[C@H](CCCNC(=N)N)C(=O)N[C@@H](CCC(=O)O)C(=O)N[C@@H](CO)C(=O)N[C@@H](Cc1c[nH]cn1)C(=O)N[C@@H](CCCCN)C(=O)NCC(=O)N1[C@H](C(=O)N[C@@H](Cc2ccc(I)cc2)C(=O)N2CCC[C@H]2C(=O)N[C@H](Cc2ccc(-c3ccccc3)cc2)C(=O)O)C[C@@H]2CCCC[C@@H]21
# B2: SEQ ID NO: 74 (peptide)
# peptide: Ac-Q[hArg][NMehArg]LSHKGP[Nle]P[Phe(4-Cl)]-OH
# SMILES: CCCC[C@H](NC(=O)[C@@H]1CCCN1C(=O)CNC(=O)[C@H](CCCCN)NC(=O)[C@H](Cc1c[nH]cn1)NC(=O)[C@H](CO)NC(=O)[C@H](CC(C)C)NC(=O)[C@H](CCCCNC(=N)N)N(C)C(=O)[C@H](CCCCNC(=N)N)NC(=O)[C@H](CCC(N)=O)NC(C)=O)C(=O)N1CCC[C@H]1C(=O)N[C@@H](Cc1ccc(Cl)cc1)C(=O)O
# B3: SEQ ID NO: 72 (peptide)
# peptide: Ac-QR[NMeR]LSHKGP[Nle]P[Phe(4-Cl)]-OH
# SMILES: CCCC[C@H](NC(=O)[C@@H]1CCCN1C(=O)CNC(=O)[C@H](CCCCN)NC(=O)[C@H](Cc1c[nH]cn1)NC(=O)[C@H](CO)NC(=O)[C@H](CC(C)C)NC(=O)[C@H](CCCNC(=N)N)N(C)C(=O)[C@H](CCCNC(=N)N)NC(=O)[C@H](CCC(N)=O)NC(C)=O)C(=O)N1CCC[C@H]1C(=O)N[C@@H](Cc1ccc(Cl)cc1)C(=O)O
# B4: SEQ ID NO: 66 (peptide)
# peptide: Ac-RQRP[NMeR][Cha]SHKGP[Nle]P[Phe(4-Cl)]-OH
# SMILES: CCCC[C@H](NC(=O)[C@@H]1CCCN1C(=O)CNC(=O)[C@H](CCCCN)NC(=O)[C@H](Cc1c[nH]cn1)NC(=O)[C@H](CO)NC(=O)[C@H](CC1CCCCC1)NC(=O)[C@H](CCCNC(=N)N)N(C)C(=O)[C@@H]1CCCN1C(=O)[C@H](CCCNC(=N)N)NC(=O)[C@H](CCC(N)=O)NC(=O)[C@H](CCCNC(=N)N)NC(C)=O)C(=O)N1CCC[C@H]1C(=O)N[C@@H](Cc1ccc(Cl)cc1)C(=O)O
# B5: SEQ ID NO: 86 (peptide)
# peptide: Ac-[hArg][dR]Q[hArg]P[dR][NMeL]SHKG[Oic]EP[dBip]-OH
# SMILES: CC(=O)N[C@@H](CCCCNC(=N)N)C(=O)N[C@H](CCCNC(=N)N)C(=O)N[C@@H](CCC(N)=O)C(=O)N[C@@H](CCCCNC(=N)N)C(=O)N1CCC[C@H]1C(=O)N[C@H](CCCNC(=N)N)C(=O)N(C)[C@@H](CC(C)C)C(=O)N[C@@H](CO)C(=O)N[C@@H](Cc1c[nH]cn1)C(=O)N[C@@H](CCCCN)C(=O)NCC(=O)N1[C@H](C(=O)N[C@@H](CCC(=O)O)C(=O)N2CCC[C@H]2C(=O)N[C@H](Cc2ccc(-c3ccccc3)cc2)C(=O)O)C[C@@H]2CCCC[C@@H]21
# B6: SEQ ID NO: 67 (peptide)
# peptide: Ac-RQRP[NMeR][NMeL]SHKGP[Nle]P[Phe(4-Cl)]-OH
# SMILES: CCCC[C@H](NC(=O)[C@@H]1CCCN1C(=O)CNC(=O)[C@H](CCCCN)NC(=O)[C@H](Cc1c[nH]cn1)NC(=O)[C@H](CO)NC(=O)[C@H](CC(C)C)N(C)C(=O)[C@H](CCCNC(=N)N)N(C)C(=O)[C@@H]1CCCN1C(=O)[C@H](CCCNC(=N)N)NC(=O)[C@H](CCC(N)=O)NC(=O)[C@H](CCCNC(=N)N)NC(C)=O)C(=O)N1CCC[C@H]1C(=O)N[C@@H](Cc1ccc(Cl)cc1)C(=O)O
# B7: SEQ ID NO: 64 (peptide)
# peptide: Ac-RQRPR[NMeL]SHKGP[Nle]P[Phe(4-Cl)]-OH
# SMILES: CCCC[C@H](NC(=O)[C@@H]1CCCN1C(=O)CNC(=O)[C@H](CCCCN)NC(=O)[C@H](Cc1c[nH]cn1)NC(=O)[C@H](CO)NC(=O)[C@H](CC(C)C)N(C)C(=O)[C@H](CCCNC(=N)N)NC(=O)[C@@H]1CCCN1C(=O)[C@H](CCCNC(=N)N)NC(=O)[C@H](CCC(N)=O)NC(=O)[C@H](CCCNC(=N)N)NC(C)=O)C(=O)N1CCC[C@H]1C(=O)N[C@@H](Cc1ccc(Cl)cc1)C(=O)O
# B8: SEQ ID NO: 61 (peptide)
# peptide: Ac-Q[hArg]P[NMeR][Cha]SHKG[Oic][Nle]P[Phe(4-Cl)]-OH
# SMILES: CCCC[C@H](NC(=O)[C@@H]1C[C@@H]2CCCC[C@@H]2N1C(=O)CNC(=O)[C@H](CCCCN)NC(=O)[C@H](Cc1c[nH]cn1)NC(=O)[C@H](CO)NC(=O)[C@H](CC1CCCCC1)NC(=O)[C@H](CCCNC(=N)N)N(C)C(=O)[C@@H]1CCCN1C(=O)[C@H](CCCCNC(=N)N)NC(=O)[C@H](CCC(N)=O)NC(C)=O)C(=O)N1CCC[C@H]1C(=O)N[C@@H](Cc1ccc(Cl)cc1)C(=O)O
# B9: SEQ ID NO: 65 (peptide)
# peptide: Ac-RQRP[NMeR]LSHKGP[Nle]P[Phe(4-Cl)]-OH
# SMILES: CCCC[C@H](NC(=O)[C@@H]1CCCN1C(=O)CNC(=O)[C@H](CCCCN)NC(=O)[C@H](Cc1c[nH]cn1)NC(=O)[C@H](CO)NC(=O)[C@H](CC(C)C)NC(=O)[C@H](CCCNC(=N)N)N(C)C(=O)[C@@H]1CCCN1C(=O)[C@H](CCCNC(=N)N)NC(=O)[C@H](CCC(N)=O)NC(=O)[C@H](CCCNC(=N)N)NC(C)=O)C(=O)N1CCC[C@H]1C(=O)N[C@@H](Cc1ccc(Cl)cc1)C(=O)O
# B10: SEQ ID NO: 63 (peptide)
# peptide: Ac-RQRPR[Cha]SHKGP[Nle]P[Phe(4-Cl)]-OH
# SMILES: CCCC[C@H](NC(=O)[C@@H]1CCCN1C(=O)CNC(=O)[C@H](CCCCN)NC(=O)[C@H](Cc1c[nH]cn1)NC(=O)[C@H](CO)NC(=O)[C@H](CC1CCCCC1)NC(=O)[C@H](CCCNC(=N)N)NC(=O)[C@@H]1CCCN1C(=O)[C@H](CCCNC(=N)N)NC(=O)[C@H](CCC(N)=O)NC(=O)[C@H](CCCNC(=N)N)NC(C)=O)C(=O)N1CCC[C@H]1C(=O)N[C@@H](Cc1ccc(Cl)cc1)C(=O)O
# B11: SEQ ID NO: 85 (peptide)
# peptide: Ac-[hArg][dR]Q[hArg]P[dR][NMeL]SHKGE[Phe(4-I)]P[dBip]-OH
# SMILES: CC(=O)N[C@@H](CCCCNC(=N)N)C(=O)N[C@H](CCCNC(=N)N)C(=O)N[C@@H](CCC(N)=O)C(=O)N[C@@H](CCCCNC(=N)N)C(=O)N1CCC[C@H]1C(=O)N[C@H](CCCNC(=N)N)C(=O)N(C)[C@@H](CC(C)C)C(=O)N[C@@H](CO)C(=O)N[C@@H](Cc1c[nH]cn1)C(=O)N[C@@H](CCCCN)C(=O)NCC(=O)N[C@@H](CCC(=O)O)C(=O)N[C@@H](Cc1ccc(I)cc1)C(=O)N1CCC[C@H]1C(=O)N[C@H](Cc1ccc(-c2ccccc2)cc1)C(=O)O
# Biological target: T1, human APJ receptor (human, UniProt P35414 1-380)
# T1 sequence (looked up): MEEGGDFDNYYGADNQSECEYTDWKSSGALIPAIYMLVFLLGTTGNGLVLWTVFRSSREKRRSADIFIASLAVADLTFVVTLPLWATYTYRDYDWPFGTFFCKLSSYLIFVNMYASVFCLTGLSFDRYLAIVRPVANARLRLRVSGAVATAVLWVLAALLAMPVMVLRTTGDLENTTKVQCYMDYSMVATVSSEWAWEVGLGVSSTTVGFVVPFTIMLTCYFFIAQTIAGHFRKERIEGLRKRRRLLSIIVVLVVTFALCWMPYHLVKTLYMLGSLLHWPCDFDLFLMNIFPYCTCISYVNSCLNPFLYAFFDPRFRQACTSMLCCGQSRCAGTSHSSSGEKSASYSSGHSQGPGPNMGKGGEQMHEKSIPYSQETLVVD
# Experiment: cell-based or functional assay
row,Binder,EC50 Human APJ Receptor
1,B1,127 nM
2,QRPRXSHKGPXXF ({Acetyl-NH}qRP[NMeArg][Cha]SHKG[aMePro][Nle][Aib][4-Cl-F]{COOH}) [SEQ ID NO: 93],0.229 nM
3,B2,0.48 nM
4,B3,1.36 nM
5,B4,0.0405 nM
6,B5,> 4170 nM
7,B6,0.185 nM
8,B7,0.0555 nM
9,B8,0.159 nM
10,RLIEDICLPRWGCLWXXQRPRLSHKGPXPF ({Acetyl-NH}RLIEDICLPRWGCLW[Aeea][Aeea]QRP[NMeArg]LSHKGP[Nle]P[4-Cl-F]{COOH}) [SEQ ID NO: 91],0.0357 nM
11,Ac-E[dR]Q[hArg]P[dR][NMeL]SHKG[Oic][Phe(4-I)]P[dBip]-OH [SEQ ID NO: 75],1.56 nM
12,RLIEDICLPRWGCLWEDDXXQRPRLSHKGPXPF ({Acetyl-NH}RLIEDICLPRWGCLWEDD[Aeea][Aeea]QRP[NMeArg]LSHKGP[Nle]P[4-Cl-F]{COOH}) [SEQ ID NO: 90],0.14 nM
13,Ac-[hArg][dR]QEP[dR][NMeL]SHKG[Oic][Phe(4-I)]P[dBip]-OH [SEQ ID NO: 77],4.92 nM
14,B9,0.0302 nM
15,Ac-QRP[NMeR][Cha]SHKG[Oic][Nle][Aib][Phe(4-Cl)]-OH [SEQ ID NO: 92],0.679 nM
16,B10,0.036 nM
17,B11,> 4170 nM

# Biological target: T2, rat APJ receptor (rat, UniProt Q9JHG3 1-377)
# T2 sequence (looked up): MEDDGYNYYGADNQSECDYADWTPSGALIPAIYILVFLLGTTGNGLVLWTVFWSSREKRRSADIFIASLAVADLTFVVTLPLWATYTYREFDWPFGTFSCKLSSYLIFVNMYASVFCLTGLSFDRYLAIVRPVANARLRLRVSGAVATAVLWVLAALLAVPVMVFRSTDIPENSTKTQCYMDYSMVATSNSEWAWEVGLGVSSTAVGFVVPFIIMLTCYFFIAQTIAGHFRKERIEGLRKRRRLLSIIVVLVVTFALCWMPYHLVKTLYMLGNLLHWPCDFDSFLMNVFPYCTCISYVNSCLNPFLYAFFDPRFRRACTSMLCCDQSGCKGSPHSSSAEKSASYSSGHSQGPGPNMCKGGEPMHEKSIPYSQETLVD
# Experiment: cell-based or functional assay
row,Binder,EC50 Rat APJ Receptor
1,B1,68.7 nM
2,QRPRXSHKGPXXF ({Acetyl-NH}qRP[NMeArg][Cha]SHKG[aMePro][Nle][Aib][4-Cl-F]{COOH}) [SEQ ID NO: 93],0.79 nM
3,B2,17.3 nM
4,B3,40.6 nM
5,B4,0.156 nM
6,B5,> 4170 nM
7,B6,1.4 nM
8,B7,0.411 nM
9,B8,0.189 nM
10,RLIEDICLPRWGCLWXXQRPRLSHKGPXPF ({Acetyl-NH}RLIEDICLPRWGCLW[Aeea][Aeea]QRP[NMeArg]LSHKGP[Nle]P[4-Cl-F]{COOH}) [SEQ ID NO: 91],0.124 nM
11,Ac-E[dR]Q[hArg]P[dR][NMeL]SHKG[Oic][Phe(4-I)]P[dBip]-OH [SEQ ID NO: 75],1.08 nM
12,RLIEDICLPRWGCLWEDDXXQRPRLSHKGPXPF ({Acetyl-NH}RLIEDICLPRWGCLWEDD[Aeea][Aeea]QRP[NMeArg]LSHKGP[Nle]P[4-Cl-F]{COOH}) [SEQ ID NO: 90],0.633 nM
13,Ac-[hArg][dR]QEP[dR][NMeL]SHKG[Oic][Phe(4-I)]P[dBip]-OH [SEQ ID NO: 77],2.84 nM
14,B9,0.122 nM
15,Ac-QRP[NMeR][Cha]SHKG[Oic][Nle][Aib][Phe(4-Cl)]-OH [SEQ ID NO: 92],3.23 nM
16,B10,0.164 nM
17,B11,> 4170 nM
